Data: patent US20240239881A1
Like-named read-outs stand apart in the source and are kept apart here.

Assays:
[1] = target: recombinant biotinylated hAngiopoietin-2 protein (R&D, Cat. No.: BT623B/CF) (human) (UniProt O15123); assay: blocking ELISA: antibody titrated against biotinylated hAng2 (300 ng/ml final); blocked binding to coated hTie2 protein; Avidin-HRP detection (fit of a flat control curve)
[2] = target: recombinant biotinylated hAngiopoietin-2 protein (R&D, Cat. No.: BT623B/CF) (human) (UniProt O15123); assay: ELISA: biotin Ang2 (R&D BT623B/CF) captured on coated streptavidin (SA), antibody titrated, anti-human IgG-HRP, OD450-OD620, GraphPad fit (fit of a flat control curve)
[3] = target: recombinant biotinylated hAngiopoietin-2 protein (R&D, Cat. No.: BT623B/CF) (human) (UniProt O15123); assay: blocking ELISA: antibody titrated against biotinylated hAng2 (300 ng/ml final); blocked binding to coated hTie2 protein; Avidin-HRP detection (fit of a flat control curve); remark: listed apart in the source
[4] = target: Human ang2 protein (Sino Biological, Cat No.: 10691-H08H) (human) (UniProt O15123); assay: ELISA: human ang2 protein (Sino Biological 10691-H08H) coated at 0.25 ug/ml, antibody titrated, HRP-conjugated secondary antibody, OD450-OD620, GraphPad fit (fit of a flat control curve)
Human ang2 protein (Sino Biological, Cat No.: 10691-H08H) (human), sequence (O15123 19-496 limits assumed): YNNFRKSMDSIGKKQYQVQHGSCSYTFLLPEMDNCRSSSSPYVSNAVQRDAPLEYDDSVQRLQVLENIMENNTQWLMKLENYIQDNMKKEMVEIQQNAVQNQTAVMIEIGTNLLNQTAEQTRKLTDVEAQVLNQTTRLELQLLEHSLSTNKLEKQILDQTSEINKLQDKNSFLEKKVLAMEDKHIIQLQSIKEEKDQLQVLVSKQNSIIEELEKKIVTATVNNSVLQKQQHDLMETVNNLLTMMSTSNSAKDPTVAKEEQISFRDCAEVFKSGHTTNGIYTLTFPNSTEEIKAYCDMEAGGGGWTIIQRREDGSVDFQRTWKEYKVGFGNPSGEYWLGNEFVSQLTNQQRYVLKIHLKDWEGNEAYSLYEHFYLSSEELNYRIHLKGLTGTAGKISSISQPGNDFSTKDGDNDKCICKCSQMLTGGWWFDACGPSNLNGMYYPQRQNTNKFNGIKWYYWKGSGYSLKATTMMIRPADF

[5] = target: Cynomolgus monkey Ang2 C-terminal domain (Lys274-Phe495) (cynomolgus monkey); assay: ForteBio BLI, antibody on AHQ sensor, 100 nM antigen, 1:1 model
Cynomolgus monkey Ang2 C-terminal domain (Lys274-Phe495) (cynomolgus monkey), sequence (chain, as listed by the source, form in doubt): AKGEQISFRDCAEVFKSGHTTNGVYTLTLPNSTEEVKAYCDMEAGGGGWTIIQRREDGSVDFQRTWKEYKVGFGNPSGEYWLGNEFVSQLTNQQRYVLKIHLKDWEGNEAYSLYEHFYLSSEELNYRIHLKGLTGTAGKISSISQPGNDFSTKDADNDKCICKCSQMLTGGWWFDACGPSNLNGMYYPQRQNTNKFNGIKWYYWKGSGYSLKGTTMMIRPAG

recombinant biotinylated hAngiopoietin-2 protein (R&D, Cat. No.: BT623B/CF) (human), sequence (O15123 19-496 limits assumed): as the sequence (O15123 19-496 limits assumed) above

IC50 [1] | EC50 [2] | IC50 [3] | EC50 [4] | Kd [5] | Substance
16.9 nM | 0.00807 nM | 24.8 nM | 16.8 nM | – | IgG (antibody)
– | – | – | – | 1.04 nM | Nesvacumab (Regeneron) (antibody)
